According to patent US20220220215A1 (CRESCENDO BIOLOGICS, published 2022):

Columns and labels:
[1] = biological target: T1, human CD137 expressed on CHO cells (human, UniProt Q07011 18-255); assay: FMAT/Mirrorball on CHO huCD137 cells
T1 construct: also called CHO huCD137; CHO human CD137 cells
Description: Binding of His-tagged molecules to CHO human CD137, CHO parent and CHO human PD1 cells was assessed using Fluorescence Microvolume Assay Technology (FMAT). All reagents were prepared in FMAT assay buffer (pH 7.4) containing PBS, 0.1% Bovine Serum Albumin, 0.05% Sodium Azide. […] Fluorescence emission was then measured on the TTP Mirrorball plate reader in the FL2 (502 nm-537 nm) and FL5 (677-800 nm) channels following excitation at 488 nm and 640 nm. Data was gated on FL5 perimeter and peak intensity and the FL2 median mean fluorescence intensity of the gated data used for determination of VH binding. Monovalent CD137 specific Humabody® VH, and trispecific molecules with a CD137 binding arm bound to CHO CD137 expressing cells. Trispecific Humabody® VH, with a PD1 binding arm bound to PD1 expressing cells.

[2] = biological target: T2, Rhesus CD137-Fc tagged protein (rhesus, UniProt H9Z8K9 24-186); assay: BLI (Octet RED384), CD137-Fc on Protein G sensor, 1:1 model
T2 construct: extracellular domain; The Octet paragraph gives no catalogue number; also called rhCD137-Fc
Description: Binding kinetics of purified monovalent VH molecules were measured on a ForteBio Octet RED 384 instrument. Human and Rhesus CD137-Fc tagged protein was diluted to 5 μg/ml in kinetics buffer (0.05% Tween, 1×PBS) and coupled to Protein G biosensors (ForteBio cat no. 18-5082) via the Fc tag. VH were serially diluted (typically 1:2 dilution series starting with 200 nM, VH at the highest concentration) and binding to the CD137-Fc-coupled Protein G biosensors measured. Binding kinetics were determined from the (blank subtracted) sensor gram trace using 1:1 binding models and ForteBio Octet Data Analysis 9.0 software. Example kinetic and binding affinity data obtained is shown Table 18 (monovalent VH).

[3] = biological target: human CD137 expressed on cells (Jurkat human CD137 NF-kB luciferase reporter cells; human CD8+ T cells) (human, UniProt Q07011 24-255); assay: cell-based or functional assay

Row | Binder | EC50 [1] [nM] | Kd [2] [nM] | koff [2] [s⁻¹] | kon [2] [M⁻¹ s⁻¹] | Jurkat-CD137/CHO-PD-1 Reporter Assay EC50 [3] [nM]
1 | 003BB172-E01-5 (VHH, Human VH single domain antibody, monovalent) VHH: EVQLVESGGGLVQPGGSLRLSCAASGFTFSNYGMHWVRQAPGKRLEWVAVISNDGNTKTYADSVKGRFTISRDNSKNTLYLQMNSLRTEDTAVYYCAQDETTTVTASYYFDYWGQGTLVTVSS | 1.29 | 11.5 | 0.00164 | 142000 | 
2 | 003BB172-E01-7 (VHH, Human VH single domain antibody, monovalent; also called CD137C) VHH: EVQLVESGGGLVQPGGSLRLSCAASGFTFSNYGMHWVRQAPGKGLEWVAVISNDGNTKTYADSVKGRFTISRDNSKNTLYLQMNSLRTEDTAVYYCAQDETTTVTASYYFDYWGQGTLVTVSS | 1.28 | 40.7 | 0.00233 | 57300 | 
3 | 003BB172-E01-6 (VHH, Human VH single domain antibody, monovalent; also called CD137B) VHH: EVQLVESGGGLVQPGGSLRLSCAASGFTFSNYGMHWVRQAPGKGLEWVAVISNDGNTKTYADSVKGRFTISRDNSKNMLYLQMNSLRTEDTAVYYCAQDETTTVTASYYFDYWGQGTLVTVSS | 1.08 | 39 | 0.00287 | 73600 | 
4 | 003BB172-E01-8 (VHH, Human VH single domain antibody, monovalent) VHH: EVQLVESGGGVVQPGGSLRLSCAASGFTFSNYGMHWVRQAPGKGLEWVAVISNDGNTKTYADSVKGRFTISRDNSKNTLYLQMNSLRTEDTAVYYCAQDETTTVTASYYFDYWGQGTLVTVSS | 1.08 | 41.4 | 0.00269 | 65000 | 
5 | TPP-943: PDA-6GS-172E1-13-6GS-HSA2-His (bispecific antibody) EVQLVESGGGLVQPGRSLRLSCAASGFTFDDYALHWVRQAPGKDLEWVSGISWNGGSYGYADSVKGRFTISRDNAKNSLYLQMNSLRAEDTALYYCVREKGPGLTGSTADYYGLDAWGQGTMVTVSSGGGGSGGGGSGGGGSGGGGSGGGGSGGGGSEVQLVESGGGVVQPGGSLRLSCAASGFTFSNYGMHWVRQAPGKGLEWVAVISNDGNTKTYADSVKGRFTISRDNSKNTLYLQMNSLRAEDTAVYYCAQDETTTVTASYYFDYWGQGTLVTVSSGGGGSGGGGSGGGGSGGGGSGGGGSGGGGSEVQLLESGGGLVKPGGSLRLSCAASGFTVSSYTMNWVRQAPGKGLEWVSSISSSGRYIYYADSVKGRFTISRDNAKNSLYLQMNSLRAEDTAVYYCARDPRMVGNPHEFDIWGQGTMVTVSSAAAHHHHHH |  |  |  |  | 25.7
6 | TPP-942: PDA-6GS-172E1-13-6GS-HSA2-2-His (bispecific antibody) EVQLVESGGGLVQPGRSLRLSCAASGFTFDDYALHWVRQAPGKDLEWVSGISWNGGSYGYADSVKGRFTISRDNAKNSLYLQMNSLRAEDTALYYCVREKGPGLTGSTADYYGLDAWGQGTMVTVSSGGGGSGGGGSGGGGSGGGGSGGGGSGGGGSEVQLVESGGGVVQPGGSLRLSCAASGFTFSNYGMHWVRQAPGKGLEWVAVISNDGNTKTYADSVKGRFTISRDNSKNTLYLQMNSLRAEDTAVYYCAQDETTTVTASYYFDYWGQGTLVTVSSGGGGSGGGGSGGGGSGGGGSGGGGSGGGGSEVQLVESGGGLVKPGGSLRLSCAASGFTFSNYNMNWVRQAPGKGLEWVSSISSAGTHIYYADSVKGRFTISRDNAKNSLYLQMNSLRAEDTAVYYCARDPHSTGWYKDFDYWGQGTLVTVSSAAAHHHHHH |  |  |  |  | 57.4

Continued, values first:

Row | EC50 [1] [nM] | Kd [2] [nM] | koff [2] [s⁻¹] | kon [2] [M⁻¹ s⁻¹] | Jurkat-CD137/CHO-PD-1 Reporter Assay EC50 [3] [nM] | Binder
7 |  |  |  |  | 43 | TPP-950: PDA2-6GS-172E1-13-6GS-HSA2-His (bispecific antibody) EVQLVESGGGVVRPGGSLRLSCAASGFTFDDYAMSWVRQAPGKGLEWVSGITWNAGSTGYADSVKGRFTISRDNAKNSLYLQMNSLRAEDTALYYCVRDKYSYAWSYDDFDIWGQGTMVTVSSGGGGSGGGGSGGGGSGGGGSGGGGSGGGGSEVQLVESGGGVVQPGGSLRLSCAASGFTFSNYGMHWVRQAPGKGLEWVAVISNDGNTKTYADSVKGRFTISRDNSKNTLYLQMNSLRAEDTAVYYCAQDETTTVTASYYFDYWGQGTLVTVSSGGGGSGGGGSGGGGSGGGGSGGGGSGGGGSEVQLVESGGGLVKPGGSLRLSCAASGFTFSNYNMNWVRQAPGKGLEWVSSISSAGTHIYYADSVKGRFTISRDNAKNSLYLQMNSLRAEDTAVYYCARDPHSTGWYKDFDYWGQGTLVTVSSAAAHHHHHH
8 |  |  |  |  | 0.0323 | TPP-1294 PDBlocker1.92-6GS-CD137A-7-6GS-HSA3 (bispecific antibody) EVQLVESGGGLVKPGGSLRLSCAASGFTFSDESMTWMRQAPGKGLEWVSYISSGGGVKFYADSVKGRFTISRDNAKNSLYLQMNSLRAEDTAVYYCAREAPLRLGESPHDAFDISGQGTMVTVSSGGGGSGGGGSGGGGSGGGGSGGGGSGGGGSEVQLVESGGGLVQPGGSLRLSCAASGFTLSNYWMNWVRQAPGKGLEWVANINQDGSERYYVDSVKGRFTISRDNAKNSLYLQMNSLRAEDTAVYYCARGGEGYGVDHYGLDVSGQGTTVTVSSGGGGSGGGGSGGGGSGGGGSGGGGSGGGGSEVQLLESGGGLVKPGGSLRLSCAASGFTVSSYTMNWVRQAPGKGLEWVSSISSSGRYIYYADSVKGRFTISRDNAKNSLYLQMNSLRAEDTAVYYCARDPRMVGNPHEFDIWGQGTMVTVSS
9 |  |  |  |  | 0.509 | TPP-1025: CD137A-6GS-HSA3-2-6GS-PDA2-His (bispecific antibody) EVQLVESGGGLVQPGGSLRLSCAASGFTLSNYWMNWVRQAPGKGLEWVANINQDGSERYYVDSVKGRFTISRDNAKNSLYLQMNSLRAEDTAVYYCARGGEGYGVDHYGLDVSGQGTTVTVSSGGGGSGGGGSGGGGSGGGGSGGGGSGGGGSEVQLLESGGGLVKPGGSLRLSCAASGFTVSSYTMNWVRQAPGKGLEWVSSISSSGRYIYYADSVKGRFTISRDNAKNSLYLQMNSLRAEDTAVYYCARDPRMVGNPHEFDIWGQGTMVTVSSGGGGSGGGGSGGGGSGGGGSGGGGSGGGGSEVQLVESGGGVVRPGGSLRLSCAASGFTFDDYAMSWVRQAPGKGLEWVSGITWNAGSTGYADSVKGRFTISRDNAKNSLYLQMNSLRAEDTALYYCVRDKYSYAWSYDDFDIWGQGTMVTVSSAAAHHHHHH
10 |  |  |  |  | 3.26 | TPP-1052: PDA2-6GS-HSA3-6GS-CD137D-His (bispecific antibody) EVQLVESGGGVVRPGGSLRLSCAASGFTFDDYAMSWVRQAPGKGLEWVSGITWNAGSTGYADSVKGRFTISRDNAKNSLYLQMNSLRAEDTALYYCVRDKYSYAWSYDDFDIWGQGTMVTVSSGGGGSGGGGSGGGGSGGGGSGGGGSGGGGSEVQLLESGGGLVKPGGSLRLSCAASGFTVSSYTMNWVRQAPGKGLEWVSSISSSGRYIYYADSVKGRFTISRDNAKNSLYLQMNSLRAEDTAVYYCARDPRMVGNPHEFDIWGQGTMVTVSSGGGGSGGGGSGGGGSGGGGSGGGGSGGGGSEVQLVESGGGVVQPGGSLRLSCAASGFTFSNYGMHWVRQAPGKGLEWVAVISNDGNTKTYADSVKGRFTISRDNSKNTLYLQMNSLRAEDTAVYYCAQDETTTVTASYYFDYWGQGTLVTVSSAAAHHHHHH
11 |  |  |  |  | 14.1 | TPP-951: PDA2-6GS-172E1-13-6GS-HSA3-His (bispecific antibody) EVQLVESGGGVVRPGGSLRLSCAASGFTFDDYAMSWVRQAPGKGLEWVSGITWNAGSTGYADSVKGRFTISRDNAKNSLYLQMNSLRAEDTALYYCVRDKYSYAWSYDDFDIWGQGTMVTVSSGGGGSGGGGSGGGGSGGGGSGGGGSGGGGSEVQLVESGGGVVQPGGSLRLSCAASGFTFSNYGMHWVRQAPGKGLEWVAVISNDGNTKTYADSVKGRFTISRDNSKNTLYLQMNSLRAEDTAVYYCAQDETTTVTASYYFDYWGQGTLVTVSSGGGGSGGGGSGGGGSGGGGSGGGGSGGGGSEVQLLESGGGLVKPGGSLRLSCAASGFTVSSYTMNWVRQAPGKGLEWVSSISSSGRYIYYADSVKGRFTISRDNAKNSLYLQMNSLRAEDTAVYYCARDPRMVGNPHEFDIWGQGTMVTVSSAAAHHHHHH
12 |  |  |  |  | 0.437 | TPP-1023: CD137A-6GS-HSA3-6GS-PDA-His (bispecific antibody) EVQLVESGGGLVQPGGSLRLSCAASGFTLSNYWMNWVRQAPGKGLEWVANINQDGSERYYVDSVKGRFTISRDNAKNSLYLQMNSLRAEDTAVYYCARGGEGYGVDHYGLDVSGQGTTVTVSSGGGGSGGGGSGGGGSGGGGSGGGGSGGGGSEVQLLESGGGLVKPGGSLRLSCAASGFTVSSYTMNWVRQAPGKGLEWVSSISSSGRYIYYADSVKGRFTISRDNAKNSLYLQMNSLRAEDTAVYYCARDPRMVGNPHEFDIWGQGTMVTVSSGGGGSGGGGSGGGGSGGGGSGGGGSGGGGSEVQLVESGGGLVQPGRSLRLSCAASGFTFDDYALHWVRQAPGKDLEWVSGISWNGGSYGYADSVKGRFTISRDNAKNSLYLQMNSLRAEDTALYYCVREKGPGLTGSTADYYGLDAWGQGTMVTVSSAAAHHHHHH
13 |  |  |  |  | 0.0809 | TPP-1291 PD138G7(G109D)-6GS-CD137A-6GS-HSA1943 (bispecific antibody) EVQLVESGGGVVRPGGSLRLSCAASGFTFDDYAMSWVRQAPGKGLEWVSGITWNGGSTGYADSVKDRFTISRDNAKNSLYLQMNSLRAEDTALYYCVRDKYSYAWSYDDFDIWGQGTMVTVSSGGGGSGGGGSGGGGSGGGGSGGGGSGGGGSEVQLVESGGGLVQPGGSLRLSCASGFTLSNYWMNWVRQAPGKGLEWVANINQDGSERYYVDSVKGRFTISRDNAKNSLYLQMNSLRAEDTAVYYCARGGEGYGVDHYGLDVSGQGTTVTVSSGGGGSGGGGSGGGGSGGGGSGGGGSGGGGSEVQLLESGGGLVKPGGSLRLSCAASGFTVSSYTMNWVRQAPGKGLEWVSSISSSGRYIYYADSVKGRFTISRDNAKNSLYLQMNSLRAEDTAVYYCARDPRMVGNPHEFDIWGQGTMVTVSS
